Values quoted from earlier work as cited in article PMC3036779.

Target: GABARAP (Homo sapiens) (UniProt O95166)
Sequence of UniProt O95166 (O95166 1-116): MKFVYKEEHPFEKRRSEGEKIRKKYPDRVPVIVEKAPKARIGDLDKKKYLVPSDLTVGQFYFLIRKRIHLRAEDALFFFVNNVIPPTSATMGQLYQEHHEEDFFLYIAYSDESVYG

Nix (from UniProt O60238)
Kd: 100 µM
